# Source: article PMC10293821
# Assays:
# [1] = biological target: apo recombinant HRPII mutant with a 4 amino acid C terminus truncation (P. falciparum); assay: AUC
# [2] = biological target: histidine-rich protein II (HRPII) purified from conditioned media of cultured P. falciparum (P. falciparum strain 3D7); assay: AUC
Substance,stoichiometry N [1],stoichiometry N [2]
apo recombinant HRPII mutant with a 4 amino acid C terminus truncation (domain or fragment),3,–
histidine-rich protein II (HRPII) purified from conditioned media of cultured P. falciparum (natural protein),–,14
